The labels stand for the following.
B1: 165_13_B6 human IgG4 (antibody, V domains shown)
VH: QVQLVESGGGLVQPGRSLRLSCAASGFTFDDYAMHWVRQAPGKGLEWVSGISGSGGSTYYADSVKGRFTISRDNAKNSLYLQMNSLRAEDTALYYCAKGQKGEGDTFDIWGQGTMVTVSS
VL: DIQMTQSPASLPTPVGDRVTITCRASQYIQGFLNWYQQKPGKAPKLLIYDASNLETGVPSRFSGSGSGTDFTLTISSLQPEDFATYYCQQSYSTPQTFGQGTKVDIKR
notes: human IgG4 with hinge S241P
B2: 165_13_D1 human IgG4 (antibody, V domains shown)
VH: B1 VH with Q100T, K101R
VL: B1 VL
notes: human IgG4 with hinge S241P
B3: 161_01_A12 human IgG4 (antibody, V domains shown)
VH: EVRLVQSGAEVKKPGASVKVSCKVSGYTLTELSMHWVRQAPGKGLEWMGGFDPEDGETIYAQKFQGRVTMTEDTSTDTAYMELSSLRSEDTAVYYCATAQPTALANTYWGQGTLVTVSS
VL: B1 VL with P14S, K45R, D50A, N53T, E55Q, T56D, S67Y, Q96W, D105E
notes: human IgG4 with hinge S241P; also called Antibody 161 01 A12 (derived from 2A5)
B4: 162_02_C6 human IgG4 (antibody, V domains shown)
VH: B3 VH with P101K, T102E, A103T, L104Y, N106L
VL: DIQMTQSPASLPTSVGDRVTITCRASQYIQGFLNWYQQKPGKAPRLLIYAASTLQDGVPSRFSGSGYGTDFTLTISSLQPEDFATYYCQNQYAGPWTFGQGTKVEIKR
notes: human IgG4 with hinge S241P; also called Antibody 162 02 C6 (derived from 2A5)
B5: 161_01_H10 human IgG4 (antibody, V domains shown)
VH: B3 VH with T102V, A103W, L104A, A105P, N106G
VL: B4 VL with N90Q, Q91S, A93S, G94T
notes: human IgG4 with hinge S241P; also called Antibody 161 01 H10 (derived from 2A5)
B6: 162_02_D3 human IgG4 (antibody, V domains shown)
VH: B3 VH with P101I, T102H, A103P, A105G, N106L
VL: B4 VL with N90Q, Q91S, A93S, G94T
notes: human IgG4 with hinge S241P; also called Antibody 162 02 D3 (derived from 2A5)
B7: 162_02_F3 human IgG4 (antibody, V domains shown)
VH: B3 VH with P101K, T102E, A103T, L104Y, N106L
VL: B4 VL with A93R
notes: human IgG4 with hinge S241P; also called Antibody 162 02 F3 (derived from 2A5)
B8: 162_02_H5 human IgG4 (antibody, V domains shown)
VH: B3 VH with P101K, T102E, A103T, L104Y, N106L
VL: B4 VL with A93T
notes: human IgG4 with hinge S241P; also called Antibody 162 02 H5 (derived from 2A5)
B9: 165_13_D4 human IgG4 (antibody, V domains shown)
VH: B1 VH with Q100T, K101V
VL: B1 VL
notes: human IgG4 with hinge S241P
B10: 161_01_C09 human IgG4 (antibody, V domains shown)
VH: B3 VH with P101L, T102P, A103Y, N106Q
VL: B4 VL with N90Q, Q91S, A93S, G94T
notes: human IgG4 with hinge S241P; also called Antibody 161 01 C09 (derived from 2A5)
B11: 162_02_C3 human IgG4 (antibody, V domains shown)
VH: B3 VH with P101K, T102E, A103T, L104Y, N106L
VL: B4 VL with Q89M, N90Q, Q91H, A93D
notes: human IgG4 with hinge S241P; also called Antibody 162 02 C3 (derived from 2A5)
B12: 161_01_F6 human IgG4 (antibody, V domains shown)
VH: B3 VH with P101K, T102E, A103N, L104I, T107R, Y108H
VL: B4 VL with N90Q, Q91S, A93S, G94T
notes: human IgG4 with hinge S241P; also called 160_01_F6; Antibody 161 01 F6, also known as 160 01 F6 (derived from 2A5)
B13: 160_01_G2 human IgG4 (antibody, V domains shown)
VH: B3 VH with A99Y, Q100T, P101L, T102D, A103N, L104M, N106L
VL: B4 VL with N90Q, Q91S, A93S, G94T
notes: human IgG4 with hinge S241P; also called Antibody 160 01 G2 (derived from 2A5)
B14: 2A5 human IgG4 (antibody, V domains shown)
VH: B3 VH with P101K, T102E, A103T, L104Y, N106L
VL: B4 VL with N90Q, Q91S, A93S, G94T
notes: human IgG4 with hinge S241P; also called 2A5 parent

Where a chain is given by its changes, count along the chain named. Names may count otherwise.

The first assay concerns the target T1, mouse tenascin-C rCd4-His-FBG (rat; mouse, UniProt P05540 207-392, limits assumed).
T1 construct: domain: domains 3 and 4; C-terminal FBG fusion; biotinylated in the ELISA screen; also called Mu TNC; mouse TNC rCd4-His-FBG; not shown: 6His tag
T1 sequence (chain (part 1 of 2)): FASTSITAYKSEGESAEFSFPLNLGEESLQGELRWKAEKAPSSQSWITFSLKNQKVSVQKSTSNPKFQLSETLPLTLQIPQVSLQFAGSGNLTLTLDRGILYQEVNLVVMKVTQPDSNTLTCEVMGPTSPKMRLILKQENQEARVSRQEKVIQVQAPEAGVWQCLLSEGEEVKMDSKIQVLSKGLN
T1 sequence (chain (part 2 of 2)): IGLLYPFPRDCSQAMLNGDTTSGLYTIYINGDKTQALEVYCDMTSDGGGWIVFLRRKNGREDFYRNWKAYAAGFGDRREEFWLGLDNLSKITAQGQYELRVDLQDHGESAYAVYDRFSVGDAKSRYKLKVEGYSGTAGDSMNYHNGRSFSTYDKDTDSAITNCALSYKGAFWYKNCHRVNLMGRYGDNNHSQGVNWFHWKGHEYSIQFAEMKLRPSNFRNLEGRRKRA
As to the kind of experiment: SPR off-rate screen, captured IgG4 supernatant, 25 C. On the procedure:
(§1) The 31 scFv of interest were sub-cloned into a human IgG4 expression vector for generation of antibodies as human IgG4 with a hinge-stabilising mutation (S241P; Angal et al, 1993). […] Briefly, surface plasmon resonance (SPR) experiments were performed using a BIAcore T100 instrument and followed the protocol according to the Human antibody capture kit protocol (GE, BR-1008-39). For off-rate screening, 10,000 response units (RU) of anti-human Fc IgG (GE, BR-1008-39) was immobilised on flow-cells (FC1 and FC2) of a Series 5 CM5 dextran sensor chip (BR-1005-30) using EDC/NHS cross-linking chemistry according to the amine coupling kit protocol (GE, BR-1000-50). Culture supernatants containing expressed IgG4 were diluted 1:2 with 2×PBS-T and injected into FC2 (flowrate 5 μl/min, 60 s contact time) to enable antibody capture at 25° C. […] A fixed concentration of antigen (15 nM of human and mouse TNC rCd4-His-FBG and 100 nM of human TNR rCd4-His-FBG) was injected with a flow-path via FC 1 (reference flow cell) and FC 2 (antibody capture flow cell), with a flow rate of 30 μl/min, and the association and dissociation phases measured over 1 and 5 min time periods, respectively. Regeneration of the binding surface employed 3M MgCl₂ with 30 s contact time. Off rates were determined by reference cell subtraction and fitting the sensogram experimental data assuming a 1:1 interaction using BIAevaluation software (GE, BR-1005-97).
A word on the koff: it is a measure of how fast the partners let go of each other. On to B1, for which the koff was 6.9e-06 s⁻¹.

In the case of B2, the koff turned out to be 3.9e-06 s⁻¹.

Take B3: the koff turned out to be 4.3e-06 s⁻¹.

In the case of B4, the koff turned out to be 0.00024 s⁻¹.

On to B5, for which the koff was determined as 1.9e-06 s⁻¹.

On to B6, for which the koff was determined as 1.06e-06 s⁻¹.

Consider B7, for which the koff was 0.00033 s⁻¹.

In the case of B8, the off-rate constant (koff) is 0.000167 s⁻¹.

Regarding B9, the koff is 3.7e-06 s⁻¹.

With B10, the koff is 2.3e-07 s⁻¹.

Consider B11, for which the koff worked out at 0.002 s⁻¹.

On to B12, for which the koff was 0.00171 s⁻¹.

Consider B13, for which the koff amounted to 1.39e-05 s⁻¹.

For a further assay, the target named is T2, human tenascin-R rCd4-His-FBG (rat; human, UniProt P05540 207-392, limits assumed).
T2 construct: domain: domains 3 and 4; C-terminal FBG fusion; also called Hu TNR; human TNR rCd4-His-FBG; not shown: 6His tag
T2 sequence (chain (part 1 of 2)): T1 sequence (chain (part 1 of 2))
T2 sequence (chain (part 2 of 2)): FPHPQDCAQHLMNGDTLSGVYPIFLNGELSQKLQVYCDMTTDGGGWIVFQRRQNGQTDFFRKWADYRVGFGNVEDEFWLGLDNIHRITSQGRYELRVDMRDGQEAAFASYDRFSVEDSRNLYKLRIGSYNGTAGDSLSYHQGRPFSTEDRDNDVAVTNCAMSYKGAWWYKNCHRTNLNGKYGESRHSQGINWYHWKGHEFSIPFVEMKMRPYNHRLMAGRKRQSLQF
The description is as above. On the procedure:
as §1
As to B1, the koff stood at 0.0037 s⁻¹.

In the case of B2, the koff is 0.0043 s⁻¹.

For B3, the koff was 0.0042 s⁻¹.

In the case of B4, the koff worked out at 0.028 s⁻¹.

On to B5, for which the koff amounted to 0.0091 s⁻¹.

On to B6, for which the koff amounted to 0.0064 s⁻¹.

Regarding B7, the koff stood at 0.088 s⁻¹.

For B8, the koff worked out at 0.082 s⁻¹.

Regarding B9, the koff worked out at 0.004 s⁻¹.

With B10, the koff is 0.00029 s⁻¹.

For the molecule B11, the koff was determined as 0.635 s⁻¹.

B12: the koff was 0.0025 s⁻¹.

For the molecule B13, the koff amounted to 0.001 s⁻¹.

The target in a further assay is T3, human tenascin-C rCd4-His-FBG (rat; human, UniProt P05540 207-392, limits assumed).
T3 construct: domain: domains 3 and 4; C-terminal FBG fusion; biotinylated in the ELISA and HTRF screens; also called Hu TNC; human TNC rCd4-His-FBG; not shown: 6His tag
T3 sequence (chain (part 1 of 2)): T1 sequence (chain (part 1 of 2))
T3 sequence (chain (part 2 of 2)): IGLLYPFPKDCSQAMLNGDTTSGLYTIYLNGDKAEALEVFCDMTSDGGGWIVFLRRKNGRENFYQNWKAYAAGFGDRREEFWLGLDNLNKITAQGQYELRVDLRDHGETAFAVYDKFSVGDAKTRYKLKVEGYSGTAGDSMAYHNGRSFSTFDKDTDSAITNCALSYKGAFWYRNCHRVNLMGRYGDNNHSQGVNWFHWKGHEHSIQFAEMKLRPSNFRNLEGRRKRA
The description is as above. On the procedure: as §1
For B1, the koff came to 5.6e-06 s⁻¹.

Regarding B14, the koff amounted to 0.0091 s⁻¹.

For the molecule B2, the koff came out at 1.4e-07 s⁻¹.

As for B3, the koff turned out to be 1.3e-06 s⁻¹.

Regarding B4, the koff was determined as 5.3e-06 s⁻¹.

As to B5, the koff was found to be 2.5e-05 s⁻¹.

With B6, the koff is 3.9e-07 s⁻¹.

Regarding B7, the koff was less than 1e-05 s⁻¹.

For B8, the koff was less than 1e-05 s⁻¹.

For the molecule B9, the koff is 6.2e-07 s⁻¹.

For B10, the koff turned out to be 1.17e-07 s⁻¹.

Turning to B11, the koff was found to be 1.49e-06 s⁻¹.

For the molecule B12, the koff is 2.8e-06 s⁻¹.

In the case of B13, the off-rate (koff) was 1.25e-05 s⁻¹.

Another assay has as its target T1, mouse tenascin-C rCd4-His-FBG. As to the kind of experiment: SPR, captured purified IgG4, 37 C. On the procedure: (§2) Detailed kinetic parameters were evaluated for the 9 prioritised IgG4 antibodies. Binding characteristics were determined for interaction with human, rat and dog TNC rCD4-His-FBG, and human TNR rCD4-His-FBG. Kinetic assays followed essentially the same protocols as for the off-rate determinations described above, with some modifications as follows. […] Purified anti-FBG IgG4 was diluted to a concentration of 3.5 nM in PBS, pH 7.4, 0.05% Tween-20 and injected into FC2 at a flow rate of 10 μl/min, 60 s contact time. […] Antigens were prepared by doubling dilution in PBS, pH 7.4, 0.05% Tween-20 (highest concentration 100 nM except mouse rCD4-His-FBG which was 7 nM). Assays were performed at 37° C. (30 μl/min, 120 s contact time; mouse rCD4-His-FBGFBG 10 μl/min, 60 s contact time), with both the flow cell and injection chamber equilibrated to this temperature. As before, kinetic parameters were determined by reference cell subtraction and fitting the sensogram experimental data assuming a 1:1 interaction using BIAevaluation software (GE, BR-1005-97).
By Kd is commonly meant a measure of binding affinity in units of concentration. Lower therefore signals higher affinity. By kon is commonly meant a measure of how fast the partners come together. Molecule B14 showed a Kd of 123 nM, a koff of 0.0106 s⁻¹ and a kon of 86800 M⁻¹ s⁻¹.

A further assay has as its target T3, human tenascin-C rCd4-His-FBG. Briefly: SPR, captured purified IgG4, 37 C. On the procedure: as §2
For orientation: SPR reads the build-up and loss of mass on a sensor chip optically.
For B14, the Kd was determined as 23.8 nM, the koff is 0.0323 s⁻¹ and the kon stood at 1.36e+06 M⁻¹ s⁻¹.

The values are drawn from US20170306005A1 (NASCIENT, published 2017).
